The nanobody polyreactivity screen of Harvey et al. (2022)

Experiment: yeast display, Sf9 membrane polyspecificity reagent, FACS + sequencing; frameworks hold sequencing errors
How it was run: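 Synthetic nanobody libraries on Saccharomyces cerevisiae BJ5465 were galactose-induced for 36–48 hours, stained 1 hour at 4 °C with 10% biotinylated, detergent-solubilized Sf9 membrane reagent and enriched on streptavidin microbeads. FACS then separated cells into low and high (top ~1%) gates by anti-HA (expression) and streptavidin (reagent binding) fluorescence. Genes were colony-PCR amplified, MiSeq 2 × 250 sequenced and CDR-length filtered. A clone's polyreactivity label is that of its gate of origin.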

Sequence | polyreactivity (PSR sort gate)
QVQLVESGGGLVQAGGSLRLSCAASGFIFPSNAMGRYRQAPGKERELVAAISSRGTRTYYADSVKGRFTISRDNAKNTVYLQMNCLKPEDTAVYYCAKYGYWGQGTQVTVSS | high polyreactivity
QVQLVESGGGLVQAGGSLRLSSAASGRTFNYYPMGWYRQAPGKQWELVAAISDSAGDTYYADSVKGRFTISRDNAKNTVDLQKNSQKPEDPAVYYCAVVRGGRGYPGYDYWGQGTQVTVSS | low polyreactivity
QVQLVETGGGLVQAGGSLRLSCAASGSTFQPYAMGWYRQAPGKERELVAAIRSIAGSTYYADSVKGRFTISRDNAKITVYLQMNILKPDDTAVYYCAADWWRVEMDYWGQGTQVTVSS | low polyreactivity
QVQLVESGGGLVQAGGSLRLSCAASGSTFDPNAMGWYRQARGKERELVAAISYTGGRTYYADSVKGRFTISRDNAKNTVYLQMNSLKPEDTAVYYCAVLVVGSTTQDEPYFSGVEHDYWGQGTQVTVSS | low polyreactivity
QVQLVESGGGLVQAGGSLRLSCAASGIIFYSNTMGWYRQAPGKERELVAGISRSGSSTYYADSVKGRFTISRDNAKNTVYLQMNSLKPEDTAVYYCAAYRYGVTNAYGYWGQGTQVTVSS | high polyreactivity
QVQLVESGGGLVQAGGSLRLSCAASGSTLSAYVMGWYRQAPGKERELVAAISQSADSTYYADSVKGRFTILRDNAKNTVYLQMNSLKPEDTAVYYCAAEYPYIYRFDYWGQGTQVTVSS | low polyreactivity
QVQLVESGGCLVQAGGSLRLSCAASGRIFQYYTMGWYRQAPAKERELVAAITYSGGDTRYADSVKGRFTISRDNAKNTVYLQMNSLKPEDTAVYYCAADYFDQYQYGVWTYGYWGQGTQVTVSS | low polyreactivity
QVQLVESGGGLVQAGGSLRLSCADSGRIFRSNAMGWYRQAPGKERELVATITSSGGRTYYADSVKGRFTISRDNAKNSVYLQMNRLKPEVSAVYYCNAQQRTRGQKAQWVRDEYWGQGTQVTLSS | low polyreactivity
QVQLVESGGGLVQAGGSLRLSCAASGSIFIGYAMGWYRQAPGKERELVAAIDSNGDTTYYADSVKGRFTISRDNAKNTVYLQMNSLKPEDTAVYYCAVDPYHDQLVSDHYYWGQGTQVTVSS | low polyreactivity
QVKLVESGGGLVQAGGSLRLSCADSGRTFYYNTMGWYRQAPGKERELVADITISGGSTYYADSVKGRFTISRDNAKNTVYLQMKSLKPEDTAVYYCAAGWFSLSTAYYHKRVGYNYWGQGTQVTVSS | high polyreactivity
QVQLLESGGGLVQAGGSLRLSCAASGSIFAYYAMGWYRQAPGKERELVAAISGTGGSTNYADSVKGRFTISRDNAKNTVYLQMNSLKPEDTAVYYCAKDYSFQWRNEFNLAGEYVYWGQGTQVTVSS | low polyreactivity
QVQLVESGGGLVQAGGSLRLSCAASGITFYFNAMGWYRQAPGKERELVAANTSGGGSTYYADSVKGRFTISRDNAKNTVYLQRNSLKPEDTAVYYCAAEWSYGGMDYWGQGTQVTVSS | low polyreactivity
QVQLLESGGGLVQAGGILRLSCAASGRTLHYSAMGWYRQAPGIERELVAAISARGGRTYYADSVKGRFTISRDNAKNTVYLLMQTLKPEDTAVYYCAAAGYITRYDRYDYWGQGTHVTVSS | high polyreactivity
QVQLVESGGGLVQAGGSLRLICAASGRTSYIDAMGWYREAPGKERELVARIRSGGSTNYADSVKGRFTISRDNAKNPVYVQMNSLKPEDTAVYYCNADFAFSRKYQANPYSAYDYWGQGTQVTVSS | high polyreactivity
QVQLVESGGGLVQAGGSLRLSCAASGFTLLTYVMGWYIQAPGKERELVAAISKSGSRTYYADSVKGRFTISRDNAKNTVYLQMNSLKPEDTAVYYCAADTSAYRYDYWGQGTQVTVSS | high polyreactivity
QVQLVESGGGLVQAGGSLRLSCAASGRWLYAMGWYIQAHGKERELVAAISRSGGSTNYADSVKGRFTISRDNAKNTVYLQMNSLKPEDTAVYYCAATPYSYYTYQPEGEYWGQGTQVTVSS | low polyreactivity
QVQLVESGGGLVQAGGSLRLSCADSGRTFYVNAMGWYRQAPGKEREFVAAISRRGGSTYYADSVKGRFTISRDNAKNTVYLQMNSLKPEDTAVYYCIAAYSSRYDYWGQGTQVTVSS | high polyreactivity
QVQLVESGGGLVQAGGSLRLSCAASGRTSPAYAMGWYRQAPGKERELVAAISRSGGRTNYADSVKGRFTISRDNAKNTVYLQMNSLKPEDTAVYYCAVPYWYLGDNSGHDPYYYWGQGTQVTVSS | high polyreactivity
QVQLVESGGGLVQAGGSLRLSCAASGRIFKVYAMGWYRQAPGKERELVASIRWNTGSTYYADSVKGRFTISRDNAKNSVYLQMNSLKPEDTAVYYCAATDWWGYYYWGQGTQVTVSS | high polyreactivity
QVQLVESGGGLVQAGGSLRLSCAASGIIFTFNAMGWYRQAPGKERELVASISITGDTYYADSVKGRFTISRDNAKNTVYLQMNSLKPEDTAVYYCAAEYYFYSRHWYISYDYWGQGTQVTVSS | low polyreactivity
QVQLVESGGGLVQAGGSLRLSCAASGRIFLGYAMGWYRQAPGKERELVATITWNSDGTYYADSVKGRFTISRDNAKNTVYLQMNSLKPEDTAVYYCATDEGWPWYYYWGQGTQVTVSS | low polyreactivity
QVQLVESGGGLVQAGGSLRLSCAASGRIFRRYAMGWYRQAPGKERELVASISLSGGSTYYADSVKGRFTISRDNAKNTVYLQMNSLKPEDTAVYYCAAVIRAYATRATYNSWGQGTQVTVSS | high polyreactivity

Sequence | polyreactivity (PSR sort gate)
QVQLVESGGGLVQAGGSLRLSCAASGSTFGGYAMGWYRPAPGKERELVAAISGGGRTYYADSVKGRFTISRDNAKNTVYLQMNSLKPADTAVYYCNAGYWFGYRLFTGYYWGQGTQVTVSS | low polyreactivity
QVQLVESGGGLVQAGGSLRLSCAASGLTFAYYAMGWYSQAPGKEREMVASINSGGSTNYADSVKGRFTISRDNAKNTVYLLMNSLKPEDTAVYYCAADWATWWYTYDFWGQGTQVTVSS | high polyreactivity
QVQLVESGGGLVQAGGSLRLSCAASGRIFSIYGMGWYRQAPGKERELVAVISGSVGITYYADSVKGRFTISRDNAKNTVYLQMNSLKPEDTAVYYSNAKVRRRKYDYWGQGTQVTVSS | high polyreactivity
QFQLVESGGGLVQAGGSLRLSCAASGYTLEYNAMGWYRQAPGKDRELGARIRWSGSSTYYADSVKGRFTISRDNAKNTVYLQMNSLKPEDTAVYYCATRYRRWKYDYWGQGTQVTVSS | high polyreactivity
QVQLVESGGGLVQEGGSLRLICSASGSTFRANAMGWYRQAPGKERELVAAITSSGGSTYYADSVKGRFTISRDNAKNTVYLQMNSLKPEDTAVYYCAKENAPSRLTYGYWGQGTQVTVSS | low polyreactivity
QVQLVESGGGLVQAGGSLRLSCAASGRIFSGYAMGWYRQAPGKESELVAAITSRSGSTYYADSVKARFTISRDNAKNTVYLQMNSLKPEDTAVYYCDAEYVRFYWYTSDYWGQGTQVTVSS | low polyreactivity
QVQLVDSGGGLVQAGGSLRLSCAASGRIFKWTAMGWYRPAPGKERELVAAIRWSSGRTYYADSVKGRFTISRDNAKNTVYLQMNSLKPEDTAVSYCAANNGYGMDYWGQGTQVTVSS | high polyreactivity
QVQLVESGGGLVQAGGSLRLSCAASGYIFDVNTMGWYRQAPGKERELFAAITSGGTTYYADSVKGRFTISRDNAKNTVYLQMNSLKPEDTAVYYCAARRYPFEYDYWGQGTQVTVSS | high polyreactivity
PVQLVESGGGLVQAGGSLRLSCAASGFTFDRYAMGWYRQAPGKERELVAAISRSGATTYYADSVKGRFTISRDNAKNTVYLQMNSLKPEDTAVYYCNADDVWYEYDYWGQGTQVTVSS | high polyreactivity
QVQLVESGGGLVQAGGSLRLSCAASGSIFPYNVMGWYRQAPGKERELVASIDGRGASTYYADSVKGRFTISRDNAKNTVYLQKNSLKPEDTAVYYCAAGYEPYAAWYYYWGQGTQVTVAS | low polyreactivity
QVQLVESGGGLVQAGGSLRLSCAASGSTFVYYAMGWYRQAPGKERELVAAMTSSGGRTYYADSVKGRFTISRDNAKNTVYLQMNSLKPEDTAVYYCATPSTRLYSVTSQGYGYWGQGTQVTVSS | high polyreactivity
QVHLVESGGGLVQAGGSLRLSCAASGLIFRKYAMGWYRQAPGKERELVAAISSGGDTNYADSVKGRFTISRDNAKNTVYLQMNSLKPEDTAVYYCNADRKYWYGIALEYWGQGTQVTVSS | high polyreactivity
QVQLVESGGGLVHAGGSHRLSCAASGFTFTFYAMGWYRQAPVKERELVAAIRTSDGRTYYADSVKGRFTISRDNAKNTVYLQMNSLKPEDTAVYYCAAQVYRPRARYYEYDYWGQGTQVTVSS | high polyreactivity
QVQLVESGGGLVQAGGSLRLSCAASGRTFKQYAMGWYSQAPGKERELVAAISRTGGRTYYADSVKGRFTISRDNAKNTVYLQMNSLKPEDTAVYFCNAVYYWYKGDYWGQGTQVTVSS | high polyreactivity
QVQLVESGGGLVQAGGSLRLICAASGSIFNGYAMGWYSQAPGKERELVADIRSGGSTYYADSVKGRFTISRDNAKNTVYLQMNSLKPEDTAVYYCAADTITDGYDYWGQGTQVTVSS | low polyreactivity
QVQLVESGGGLVQAGGSLRLSCAASGSIVENMGWYRQAPGKERELVAAISSSGDSTYYADSVKGRFTISRDNAKNTVYLQMNSLKPEDTAVYYCAADFYYYKKQYDYWGQGTQVTVSS | low polyreactivity
QVQLVDSGGGLVQAGGSLRLSCAASGSILGAKDMGWFRQAPGKERELVATITWNGGGTSYADSVKGRFTISRDNAKNTVYLQMNSLKAEDTAVYYFNALGRDSQALYRYRLVGEFGYWGQGSQVTVSS | low polyreactivity
QVQLVESGGGLVQAGGSLRLSCAASGRIFDLYAMGWYRQAPGKEREFVAAISGRGGSTYYADSVKGRFTISRDNAKNTVYLQMNSLKPEDTAVYYCNAKRSLYGRYGYWGQGSQVTVSS | high polyreactivity
QVQVVESGGGLVQAGGSLRLSCAASGSTFKKYAMGWYRQAPGKERELVAAISWSGGSTYYADSVKGRFTISRDNAKNTVYLQMNSLKPEDTAVYYCAAYPYTYYLDRYEYWGQGTQVTVSS | high polyreactivity
QDQLVESGGGLVQAGGSLRLSCAASGSTLAGYAMGWYRLAPGKVRELVAAIDWTGGSTTYADSVKGRFTISRDNAKNTVYLQMNSLKPEDTAVYYCNVDLGVNGDYWGQGTQVTVSS | low polyreactivity
QVQVVESGGGLVQAGGSLRLSCAPSGRIFLGNRMSWYRHAPGKERELVAAISKSGGTTYYADSVKGRFTISRDNAKNTVYLQMNSLKPEDTAVYYCAASRPRPPSSRRMDYWGQGTQVTVSS | high polyreactivity
